In paper PMC6018003, “Quantifying the Interaction between Copper-Zinc Superoxide Dismutase (Sod1) and its Copper Chaperone (Ccs1)” (Journal of proteomics & bioinformatics, 2018):
Each block holds one binder with its values, some of them ahead of it.

Target: T1, H46R/H48Q/C146S Sod1 labeled with Alexa-546 at C57 (yeast, Alexa-546 C5-maleimide on C57)
T1 construct: two residue (Gly-His) extension left on the N-terminus after TEV cleavage; The vector with His tag and TEV site is stated for Ccs1; the purification with tag removal is told of both proteins; also called immature Sod1; E, E-Sod1^SH; source: E. coli BL21 (DE3) pLysS, purified (HisTrap HP Ni2+ column, TEV cleavage; Superdex 200 after labeling); not shown: His8, N-terminal, cleaved
T1 sequence (P00445 2-154 with H46R H48Q C146S, looked up): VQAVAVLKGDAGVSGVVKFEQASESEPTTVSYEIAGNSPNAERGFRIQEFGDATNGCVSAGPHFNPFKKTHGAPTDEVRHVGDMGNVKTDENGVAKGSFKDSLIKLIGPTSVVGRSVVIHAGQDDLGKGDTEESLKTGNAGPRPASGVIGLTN
Assay: other fluorescence titration; microplate, quenching of Alexa-546-labeled Sod1 on titration with Ccs1; Sod1 metal deficient and disulfide reduced (E, E-Sod1^SH); 20 mM Tris pH 7.5, 150 mM NaCl, 1 mM TCEP, 0.01% octyl glucoside and CHAPS
Details: both partners purified

Kd: 0.552 ± 0.105 µM
B1: Ccs1 lacking D3 (domain or fragment)
chain: MTTNDTYEATYAIPMHCENCVNDIKACLKNVPGINSLNFDIEQQIMSVESSVAPSTIINTLRNCGKDAIIRGAGKPNSSAVAILETFQKYTIDQKKDTAVRGLARIVQVGENKTLFDITVNGVPEAGNYHASIHEKGDVSKGVESTGKVWHKFDEPIECFNESDLGKNLYSGKTFLSAPLPTWQLIGRSFVISKSLNHPENEPSSVKDYSFLGVIARSAGVW

Kd: 0.217 ± 0.038 µM
B2: Ccs1 lacking D1 (domain or fragment)
chain: IRGAGKPNSSAVAILETFQKYTIDQKKDTAVRGLARIVQVGENKTLFDITVNGVPEAGNYHASIHEKGDVSKGVESTGKVWHKFDEPIECFNESDLGKNLYSGKTFLSAPLPTWQLIGRSFVISKSLNHPENEPSSVKDYSFLGVIARSAGVWENNKQVCACTGKTVWEERKDALANNIK
